The test has as its system EGF receptor mutants (Y5F, CD196). Briefly: Binding of GST-Shc 1-209 to EGF receptor autophosphorylation mutants from NIH 3T3 lysates. Conditions: all tyrosine-phosphorylated residues mutated to phenylalanine or carboxyl terminus deleted. How it is done:
FIG. 3. Association of GST-Shc 1-209 with mutant forms of the EGF receptor. NIH 3T3 cells overexpressing various EGF receptor mutants were stimulated with EGF (200 ng/ml) for 3 min and then lysed. Wild type EGF receptor (W.T.) contains all five known EGF receptor autophosphorylation sites, Y2F has Tyr-992 and Tyr-1068 mutated to phenylalanine, Y5F has all five known EGF receptor autophosphorylation sites mutated to phenylalanine, and CD196 has a carboxyterminal deletion of 196 amino acids deleting all known autophosphorylation sites (Li, N., et al. (1994) Oncogene (In Press). Beads containing GST-Shc 1-209 fusion protein (3 μg) were added to the various lysates containing equal amounts of the receptor (left panels) or the lysates were immunoprecipitated with the anti-EGF receptor (EGFR) antibody (mAb108) (right panels). All samples were incubated at 4° C. for 90 min. The bound proteins were then washed, subjected to SDS-PAGE and transferred to nitrocellulose. […]
Binding Studies—GST fusion proteins were expressed using standard techniques (Ausubel, F. M., et al. Current Protocols in Molecular Biology, (1992) Wiley Interscience, New York). Protein concentration was determined by SDS-PAGE (polyacrylamide gel electrophoresis) using bovine serum albumin as a standard. […]

Experimental findings from patent US20050032689A1, “Methods for treatment or diagnosis of disease or disorders associated with an APB domain” (New York University, priority 1994, published 2005) are described below.

B1: Shc 1-209: Shc amino terminus, first 209 amino acids of murine p52Shc, generated as a GST fusion protein (protein, UniProt P98083 1-209, looked up, fragment)
chain: MDLLPPKPKYNPLRNESLSSLEEGASGSTPPEELPSPSASSLGPILPPLPGDDSPTTLCSFFPRMSNLKLANPAGGRLGPKGEPGKAAEDGEGSAGAALRDSGLLPLLQDMNKLSGGGGRRTRVEGGQLGGEEWTRHGSFVNKPTRGWLHPNDKVMGPGVSYLVRYMGCVEVLQSMRALDFNTRTQVTREAISLVCEAVPGAKGATRRR
modifications: GST fusion
notes: Shc amino terminus, first 209 amino acids of murine p52Shc, generated as a GST fusion protein
Turning to B1, the “binding to EGF receptor mutants lacking autophosphorylation sites” value is “completely eliminated Shc 1-209 binding”.
